B1: IpaA 483-633 (A483) (other)
chain: GDTYLTRETIFEASKKVTNSLSNLISLIGTKSGTQERELQEKSKDITKSTTEHRINNKLKVTDANIRNYVTETNADTIDKNHAIYEKAKEVSSALSKVLSKIDDTSAELLTDDISDLKNNNDITAENNNIYKAAKDVTTSLSKVLKNINKD
B2: IpaA 524-633 (A524) (other)
chain: KSKDITKSTTEHRINNKLKVTDANIRNYVTETNADTIDKNHAIYEKAKEVSSALSKVLSKIDDTSAELLTDDISDLKNNNDITAENNNIYKAAKDVTTSLSKVLKNINKD
B3: full-length human vinculin (HV) (other)
chain: MPVFHTRTIESILEPVAQQISHLVIMHEEGEVDGKAIPDLTAPVAAVQAAVSNLVRVGKETVQTTEDQILKRDMPPAFIKVENACTKLVQAAQMLQSDPYSVPARDYLIDGSRGILSGTSDLLLTFDEAEVRKIIRVCKGILEYLTVAEVVETMEDLVTYTKNLGPGMTKMAKMIDERQQELTHQEHRVMLVNSMNTVKELLPVLISAMKIFVTTKNSKNQGIEEALKNRNFTVEKMSAEINEIIRVLQLTSWDEDAWASKDTEAMKRALASIDSKLNQAKGWLRDPSASPGDAGEQAIRQILDEAGKVGELCAGKERREILGTCKMLGQMTDQVADLRARGQGSSPVAMQKAQQVSQGLDVLTAKVENAARKLEAMTNSKQSIAKKIDAAQNWLADPNGGPEGEEQIRGALAEARKIAELCDDPKERDDILRSLGEISALTSKLADLRRQGKGDSPEARALAKQVATALQNLQTKTNRAVANSRPAKAAVHLEGKIEQAQRWIDNPTVDDRGVGQAAIRGLVAEGHRLANVMMGPYRQDLLAKCDRVDQLTAQLADLAARGEGESPQARALASQLQDSLKDLKARMQEAMTQEVSDVFSDTTTPIKLLAVAATAPPDAPNREEVFDERAANFENHSGKLGATAEKAAAVGTANKSTVEGIQASVKTARELTPQVVSAARILLRNPGNQAAYEHFETMKNQWIDNVEKMTGLVDEAIDTKSLLDASEEAIKKDLDKCKVAMANIQPQMLVAGATSIARRANRILLVAKREVENSEDPKFREAVKAASDELSKTISPMVMDAKAVAGNISDPGLQKSFLDSGYRILGAVAKVREAFQPQEPDFPPPPPDLEQLRLTDELAPPKPPLPEGEVPPPRPPPPEEKDEEFPEQKAGEVINQPMMMAARQLHDEARKWSSKGNDIIAAAKRMALLMAEMSRLVRGGSGTKRALIQCAKDIAKASDEVTRLAKEVAKQCTDKRIRTNLLQVCERIPTISTQLKILSTVKATMLGRTNISDEESEQATEMLVHNAQNLMQSVKETVREAEAASIKIRTDAGFTLRWVRKTPWYQ
B4: vinculin D1 domain (HVD1) (other)
chain: MPVFHTRTIESILEPVAQQISHLVIMHEEGEVDGKAIPDLTAPVAAVQAAVSNLVRVGKETVQTTEDQILKRDMPPAFIKVENACTKLVQAAQMLQSDPYSVPARDYLIDGSRGILSGTSDLLLTFDEAEVRKIIRVCKGILEYLTVAEVVETMEDLVTYTKNLGPGMTKMAKMIDERQQELTHQEHRVMLVNSMNTVKELLPVLISAMKIFVTTKNSKNQGIEEALKNRNFTVEKMSAEINEIIRVLQLTSWDEDAW
notes: also called D1 domain of vinculin

Legend:
[1] = biological target: B3; assay: solid phase (ELISA) assay, HV coated, A483 in solution
[2] = biological target: B4; assay: solid phase (ELISA) assay, HVD1 coated, A483 in solution
[3] = biological target: B4; assay: size exclusion chromatography; stoichiometry listed for the complex
[4] = biological target: B3; assay: solid phase (ELISA) assay, HV coated, A524 in solution
[5] = biological target: B1; assay: solid phase (ELISA) assay, A483 coated, HV in solution
[6] = biological target: B2; assay: solid phase (ELISA) assay, A524 coated, HV in solution
[7] = biological target: T1, talin H1-H4; assay: size exclusion chromatography; stoichiometry listed for the complex
T1 construct: domain: H1-H4; also called TlnH1-H4; T1nH1-H4
T1 sequence (P26039 482-636): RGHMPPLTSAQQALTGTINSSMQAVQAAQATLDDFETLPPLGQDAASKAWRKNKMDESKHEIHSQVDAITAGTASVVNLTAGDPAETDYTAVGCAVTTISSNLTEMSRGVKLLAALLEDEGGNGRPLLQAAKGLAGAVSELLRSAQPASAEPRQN

## B1
[1]
  EC50 (read off the curve): 200 to 300 pM
[2]
  EC50 (read off the curve): ~800 pM
[3]
  stoichiometry: 1 molar ratio of the complex (1:1)

## B2
[4]
  EC50 (read off the curve): ~300 pM

## B3
[5]
  EC50 (read off the curve): ~5000 pM
[6]
  EC50 (read off the curve): ~4000 pM

## B4
[7]
  stoichiometry: 1 molar ratio of the complex (1:1)

From patent publication US20180264072A1 (PARIS SCIENCES ET LETTRES QUARTER LATIN, published 2018)
